Reference: PMC10385607, “Optimization and Characterization of Novel ALCAM-Targeting Antibody Fragments for Transepithelial Delivery” (Pharmaceutics, 2023)
Values belong to the binder of their own block, whether it stands above or below them.

How the values were obtained:
Murine ALCAM = Murine ALCAM (Mus musculus, UniProt Q61490); test: cell-based or functional assay
Rat ALCAM = target: T1, Rat ALCAM (Rattus norvegicus, UniProt O35112); test: ELISA; plate coated with human, mouse, rat or monkey ALCAM (5 µg/mL in PBS); scFv V2D7 1:3 dilutions from 1000 nM to 0.051 nM in PBS, 2 h RT; detected with HRP-coupled protein A; settings: both partners purified
T1 construct: rat ALCAM, recombinant; source: bought: Sino Biological (80221-R08H-50)

Monkey ALCAM = target: T2, Monkey ALCAM (Macaca fascicularis (cynomolgus monkey), UniProt G7NZQ8); test: as above; settings: both partners purified
T2 construct: cynomolgus monkey ALCAM, recombinant; also called cynomolgus monkey ALCAM; source: bought: R&D systems (10027-AL-100)

[1] = target: T3, Human ALCAM (28–501)-6xhistidine tag (human, UniProt Q13740); test: ELISA; CD6 competition ELISA: plate coated with hALCAM (5 µg/mL in PBS); fixed murine CD6-Fc (0.25 µg/mL) with antibody 2000 nM to 0.002 nM in PBS, 2 h RT; bound CD6-Fc detected with HRP-coupled antihuman IgG; settings: both partners purified
T3 construct: human ALCAM, residues 28-501, all five extracellular immunoglobulin domains; also called hALCAM; source: CHO cells, in-house, purified (Ni-NTA agarose)

[2] = target: T3, Human ALCAM (28–501)-6xhistidine tag; test: as above; settings: both partners purified; remark: listed apart in the source
[3] = target: T3, Human ALCAM (28–501)-6xhistidine tag; test: SPR; BiaCore3000; CM5 chip coated with hALCAM at 800 RU; flow 10 µL/min; single-cycle, sequential injection of scFv at 30, 60, 120 and 240 nM; settings: both partners purified
[4] = target: T4, Human ALCAM (28–501)-6xhistidine tag (human, UniProt Q13740 28-501); test: ELISA; CD6 competition ELISA: plate coated with hALCAM (5 µg/mL in PBS); fixed murine CD6-Fc (0.25 µg/mL) with antibody 2000 nM to 0.002 nM in PBS, 2 h RT; bound CD6-Fc detected with HRP-coupled antihuman IgG; settings: both partners purified
T4 construct: human ALCAM, residues 28-501, all five extracellular immunoglobulin domains; also called hALCAM; source: CHO cells, in-house, purified (Ni-NTA agarose)
T4 sequence (looked up): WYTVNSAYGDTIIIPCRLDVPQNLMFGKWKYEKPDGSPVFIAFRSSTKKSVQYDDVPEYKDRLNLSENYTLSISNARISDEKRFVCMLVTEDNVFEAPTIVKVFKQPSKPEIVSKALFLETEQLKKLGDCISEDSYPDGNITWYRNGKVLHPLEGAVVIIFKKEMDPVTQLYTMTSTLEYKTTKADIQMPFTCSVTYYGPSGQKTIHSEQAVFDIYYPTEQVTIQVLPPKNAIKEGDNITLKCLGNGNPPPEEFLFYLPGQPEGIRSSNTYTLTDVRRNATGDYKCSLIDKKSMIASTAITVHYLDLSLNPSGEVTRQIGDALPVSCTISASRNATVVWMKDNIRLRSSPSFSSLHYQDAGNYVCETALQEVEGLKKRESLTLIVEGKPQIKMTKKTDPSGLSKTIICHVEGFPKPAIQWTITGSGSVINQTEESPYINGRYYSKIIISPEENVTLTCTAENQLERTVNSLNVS

Sequence of Murine ALCAM (Q61490 28-527): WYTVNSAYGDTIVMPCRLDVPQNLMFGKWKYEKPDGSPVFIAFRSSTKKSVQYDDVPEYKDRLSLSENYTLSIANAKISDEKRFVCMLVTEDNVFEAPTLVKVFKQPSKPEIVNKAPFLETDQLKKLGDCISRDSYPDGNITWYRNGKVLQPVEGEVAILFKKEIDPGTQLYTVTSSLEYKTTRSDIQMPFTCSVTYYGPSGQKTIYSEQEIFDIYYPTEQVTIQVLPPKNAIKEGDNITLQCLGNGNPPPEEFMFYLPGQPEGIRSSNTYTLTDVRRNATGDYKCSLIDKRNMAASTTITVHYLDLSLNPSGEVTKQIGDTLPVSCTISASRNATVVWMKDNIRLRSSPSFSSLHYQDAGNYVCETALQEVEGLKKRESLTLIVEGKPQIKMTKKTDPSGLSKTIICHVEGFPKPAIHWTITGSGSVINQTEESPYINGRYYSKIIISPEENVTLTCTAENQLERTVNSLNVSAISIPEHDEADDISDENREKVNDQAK
T1 sequence (O35112 28-527): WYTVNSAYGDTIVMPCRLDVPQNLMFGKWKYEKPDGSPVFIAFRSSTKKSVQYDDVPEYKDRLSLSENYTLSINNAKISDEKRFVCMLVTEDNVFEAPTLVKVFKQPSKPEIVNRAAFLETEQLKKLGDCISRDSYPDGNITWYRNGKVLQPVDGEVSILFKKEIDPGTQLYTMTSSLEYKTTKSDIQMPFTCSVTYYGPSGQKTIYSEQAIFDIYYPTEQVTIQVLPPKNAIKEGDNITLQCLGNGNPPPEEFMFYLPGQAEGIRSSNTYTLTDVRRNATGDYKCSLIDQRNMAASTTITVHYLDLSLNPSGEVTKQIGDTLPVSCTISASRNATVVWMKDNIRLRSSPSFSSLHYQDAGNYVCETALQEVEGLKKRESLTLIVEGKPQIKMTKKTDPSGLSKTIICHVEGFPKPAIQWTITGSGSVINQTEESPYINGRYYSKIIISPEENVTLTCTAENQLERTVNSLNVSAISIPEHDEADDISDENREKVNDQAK

binding result (Rat ALCAM): binds
binding result (Monkey ALCAM): binds
IC50 [1]: 20.7 ± 11.8 nM
B1: scFv V2D7 (scFv, V domains shown)
VH: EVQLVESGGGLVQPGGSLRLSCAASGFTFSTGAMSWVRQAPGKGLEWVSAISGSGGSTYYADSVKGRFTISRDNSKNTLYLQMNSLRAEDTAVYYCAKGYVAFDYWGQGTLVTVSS
VL: SSVLTQPPSVSVAPGQTARITCQGDSLRSGYASWYQQKPGQAPVLVVYGKNNRPSGIPERFSGSSSGNTATLTISRVEAGDEADYYCNSSPPFSAEVVFGGGTKLTVL
notes: VH of V2D7: as the VH of OPT with changed CDR1; linker; VL of V2D7: as the VL of OPT with changed CDR1; CDR1 QGDSLRSGYAS, CDR2 GKNNRPS, CDR3 NSSPPFSAEVV; also called V2D7 scFv; source: CHO cells, transient gene expression, purified (Protein A)
IC50 of DC transmigration across LEC monolayers (DC TM; blocks ALCAM–ALCAM between DCs and LECs) (Murine ALCAM): > 100 nM

binding result [2]: binds
B2: db V20C10NC (other)
VH: EVQLVESGGGLVQPGGSLRLSCAASGFTFSTGAMSWVRQAPGKGLEWVSAISGTGGTTYYADSVKGRFTISRDNSKNTLYLQMNSLRAEDTAVYYCAKGYVAFDYWGQGTLVTVSS
VL: SSVLTQPPSVSVAPGQTARITCQGDSLRSGYASWYQQKPGQAPVLVVYPKMSRPSGIPERFSGSSSGNTATLTISRVEAGDEADYYCNSSPPFSAEVVFGGGTKLTVL
notes: linker; Bivalent two-chain diabody; also called V20C10NC in db format; source: CHO cells, transient gene expression, purified (Protein A)

fold improvement of Kd against scFv IF8 [3]: 2 fold
B3: scFv OPT (scFv, V domains shown)
VH: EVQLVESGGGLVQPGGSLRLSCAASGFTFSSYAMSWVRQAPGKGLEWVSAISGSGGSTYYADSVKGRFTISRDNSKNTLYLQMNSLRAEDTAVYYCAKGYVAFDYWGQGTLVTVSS
VL: SSVLTQPPSVSVAPGQTARITCQGDSLRSYYASWYQQKPGQAPVLVVYGKNNRPSGIPERFSGSSSGNTATLTISRVEAGDEADYYCNSSPPFSAEVVFGGGTKLTVL
notes: linker; CDR1 QGDSLRSYYAS, CDR2 GKNNRPS, CDR3 NSSPPFSAEVV; Only CDRs and linker are printed; also called framework-optimized scFv OPT; source: CHO cells, transient gene expression, purified (Protein A)

binding result [3]: binds
B4: scFv V20C10NC (scFv, V domains shown)
VH: EVQLVESGGGLVQPGGSLRLSCAASGFTFSTGAMSWVRQAPGKGLEWVSAISGTGGTTYYADSVKGRFTISRDNSKNTLYLQMNSLRAEDTAVYYCAKGYVAFDYWGQGTLVTVSS
VL: SSVLTQPPSVSVAPGQTARITCQGDSLRSGYASWYQQKPGQAPVLVVYPKMSRPSGIPERFSGSSSGNTATLTISRVEAGDEADYYCNSSPPFSAEVVFGGGTKLTVL
notes: VH of V20C10NC: as the VH of OPT with changed CDR1 and CDR2; linker; VL of V20C10NC: as the VL of OPT with changed CDR1 and CDR2; CDR1 QGDSLRSGYAS, CDR2 PKMSRPS, CDR3 NSSPPFSAEVV; Histidines in the CDR2 loops of clone V20C10 were mutated to threonine (VH) and serine (VL), giving V20C10NC; source: CHO cells, transient gene expression, purified (Protein A)

binding result [3]: binds
B5: scFv V200G1 (scFv, V domains shown)
VH: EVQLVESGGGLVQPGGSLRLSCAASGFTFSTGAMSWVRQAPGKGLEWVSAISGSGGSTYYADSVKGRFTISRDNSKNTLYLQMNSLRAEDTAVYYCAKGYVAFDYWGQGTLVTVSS
VL: SSVLTQPPSVSVAPGQTARITCQGDSLRSGYASWYQQKPGQAPVLVVYGKTGRPSGIPERFSGSSSGNTATLTISRVEAGDEADYYCNSSPPFSAEVVFGGGTKLTVL
notes: VH of V200G1: as the VH of V2D7, i.e. the VH of OPT with changed CDR1; linker; VL of V200G1: as the VL of OPT with changed CDR1 and CDR2; CDR1 QGDSLRSGYAS, CDR2 GKTGRPS, CDR3 NSSPPFSAEVV; source: CHO cells, transient gene expression, purified (Protein A)

IC50 [2]: 63.6 nM
Kd [3]: 24.1 nM
B6: scFv IF8 (scFv, V domains shown)
VH: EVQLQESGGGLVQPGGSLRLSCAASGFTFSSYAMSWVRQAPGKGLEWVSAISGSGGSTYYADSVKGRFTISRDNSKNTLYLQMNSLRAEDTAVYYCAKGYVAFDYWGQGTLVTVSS
VL: SSELTQDPAVSVALGQTVRITCQGDSLRSYYASWYQQKPGQAPVLVIYGKNNRPSGIPDRFSGSSSGNTASLTITGAQAEDEADYYCNSSPPFSAEVVFGGGTKLTVL
notes: VH of IF8 (heavy chain DP47, ETH-2 library); VL of IF8 (light chain DPL16, ETH-2 library); CDR1 QGDSLRSYYAS, CDR2 GKNNRPS, CDR3 NSSPPFSAEVV; Only CDRs and linker are printed; also called IF8 scFv; parental scFv IF8; source: CHO cells, transient gene expression, purified (Protein A)

binding result [4]: binds
B7: Murine CD6-Fc (Fc fusion, mouse, UniProt Q61003 17-398, looked up)
chain: GLPSPAPSGQHKNGTIPNMTLDLEERLGIRLVNGSSRCSGSVKVLLESWEPVCAAHWNRAATEAVCKALNCGDSGKVTYLMPPTSELPPGATSGNTSSAGNTTWARAPTERCRGANWQFCKVQDQECSSDRRLVWVTCAENQAVRLVDGSSRCAGRVEMLEHGEWGTVCDDTWDLQDAHVVCKQLKCGWAVKALAGLHFTPGQGPIHRDQVNCSGTEAYLWDCPGRPGDQYCGHKEDAGVVCSEHQSWRLTGGIDSCEGQVEVYFRGVWSTVCDSEWYPSEAKVLCRSLGCGSAVARPRGLPHSLDGRMYYSCKGQEPALSTCSWRFNNSNLCSQSRAARVVCSGSQRHLNLSTSEVPSRVPVTIESSVPVSVKDKDSQGLT
notes: mouse CD6, recombinant Fc fusion; source: bought: R&D Systems (727-CD)
